Experimental findings from publication PMC11972413 are described below.

What all share (test): cryo-EM structure
For experiment [1], the target named is tail sheath protein (bacteriophage φTE).
In experiment [2] the target is hub protein (bacteriophage φTE).
Experiment [3] has as its target tube initiator (TI) protein (bacteriophage φTE).
For experiment [4], the target named is long-tail fiber (LTF) (bacteriophage φTE).
The target in experiment [5] is portal protein (bacteriophage φTE).
Experiment [6] concerns the target minor capsid protein (DEC) (bacteriophage φTE).
The target of experiment [7] is puncture apparatus (PA) (bacteriophage φTE).
Experiment [8] has as its target short-tail fiber (STF) (bacteriophage φTE).
Experiment [9] has as its target tape measure protein (TMP), six-stranded part along the tail (bacteriophage φTE).
Experiment [10] has as its target major capsid protein (MCP) (bacteriophage φTE).
Experiment [11] addresses adapter protein (bacteriophage φTE).
Experiment [12] deals with tail tube protein (bacteriophage φTE).

Take tail sheath protein (natural protein): the stoichiometry N in experiment [1] came to 6.
In [2], hub protein (natural protein) displayed a stoichiometry N of 3.
The substance “tube initiator (TI) protein (natural protein)” gave a stoichiometry N in experiment [3] of 6.
In turn, long-tail fiber (LTF) (natural protein) came in with a stoichiometry N in experiment [4] of 3.
With portal protein (natural protein), in [5], the stoichiometry N worked out at 12.
“minor capsid protein (DEC) (natural protein)” returned a stoichiometry N in experiment [6] of 3.
On to “puncture apparatus (PA) (natural protein)”, for which the stoichiometry N in experiment [7] came out at 3; in [2], 1.
As for “short-tail fiber (STF) (natural protein)”, the stoichiometry N in experiment [8] came out at 3.
On to “tape measure protein (TMP), six-stranded part along the tail (natural protein)”, for which, in experiment [9], the stoichiometry N was determined as 6.
“major capsid protein (MCP) (natural protein)” came in with a stoichiometry N in experiment [10] of 6.
adapter protein (natural protein) had a stoichiometry N in experiment [11] of 12.
As for tail tube protein (natural protein), in experiment [12], the stoichiometry N was determined as 6.

In general, stoichiometry N refers to the number of molecules, sites or subunits per partner or assembly.
